Results published in patent publication US9074002B2, “PTP1B inhibitors” (Cold Spring Harbor Laboratory, priority 2009, dated 2015).
“Also recorded” adds a separate entry of the source.

T1: PTP1B-OX (Homo sapiens, UniProt P18031)
T1 construct: made in house; host or cells: E. coli BL21 (pET19b)
T1 sequence (P18031 3-277): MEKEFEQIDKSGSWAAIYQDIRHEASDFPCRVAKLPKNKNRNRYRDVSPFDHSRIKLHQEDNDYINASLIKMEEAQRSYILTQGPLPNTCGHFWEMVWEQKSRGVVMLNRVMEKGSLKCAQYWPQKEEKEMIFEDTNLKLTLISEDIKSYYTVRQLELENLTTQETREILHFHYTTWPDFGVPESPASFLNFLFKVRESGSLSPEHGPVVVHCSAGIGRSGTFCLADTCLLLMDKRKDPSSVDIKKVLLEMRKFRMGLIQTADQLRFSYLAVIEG

T2: endogenous PTP1B-OX (Homo sapiens, UniProt P18031)
T2 construct: endogenous in cells; host or cells: 293T cells (transfected only with the scFv intrabody)
T2 sequence (P18031 1-435): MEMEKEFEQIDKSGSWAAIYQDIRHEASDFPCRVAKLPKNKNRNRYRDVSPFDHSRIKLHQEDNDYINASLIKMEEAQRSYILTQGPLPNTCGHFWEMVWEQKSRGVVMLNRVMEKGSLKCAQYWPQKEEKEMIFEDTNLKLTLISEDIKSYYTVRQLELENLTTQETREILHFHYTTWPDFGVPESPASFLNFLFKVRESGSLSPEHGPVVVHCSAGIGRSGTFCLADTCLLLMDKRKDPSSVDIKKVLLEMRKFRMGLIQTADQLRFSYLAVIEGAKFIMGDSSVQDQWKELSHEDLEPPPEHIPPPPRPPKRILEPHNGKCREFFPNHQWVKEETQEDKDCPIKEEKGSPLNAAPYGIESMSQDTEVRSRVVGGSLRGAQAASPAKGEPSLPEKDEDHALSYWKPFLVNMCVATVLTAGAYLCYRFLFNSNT

T3: PTP1B (reduced, active) (Homo sapiens, UniProt P18031)
T3 construct: made in house; host or cells: E. coli BL21 (pET19b)
T3 sequence (P18031 3-277 limits assumed): T1 sequence (P18031 3-277)

T4: endogenous PTP1B under reducing conditions (Homo sapiens, UniProt P18031)
T4 construct: endogenous in cells; host or cells: 293T cells (transfected only with the scFv intrabody)
T4 sequence (P18031 1-435): T2 sequence (P18031 1-435)

B1: scFv64: scFv binding PTP1B-OX, SEQ ID NO: 28 and 97 (protein)
scFv: MKKTAIAIAVALAGFATVAQAALTQPSSVSANPGDPLKITCSGDSSGYGYGWYQQKSPGSAPVTVIYNNNKRPSDIPSRFSGSKSGSTGTLTITGVQAEDEAVYFCGSEDSNTDAVFGAGTTLTVLGQSSRSSTVTLDESGGGLQTPGGTLSLACKASGFTFSGYDMGWVRQAPGKGLEYVAGITSDGRYASYGSAVDGRAAIWRDNGQSTVRLQLKNLRTEDTATYYCARNDGSGWNGNNIDAWGHGTEVIVSSTSGQAGQHHHHHHGAYPYDVPDYAS
B2: scFv106: scFv binding PTP1B-OX, SEQ ID NO: 29 and 133 (protein)
scFv: MKKTAIAIAVALAGFATVAQAALTQPSSVSANPGETVKITCSGDSSDYGYGWYQQKSPGSAPVTVTYSNNQRPPNIPSRFSGSASGSTATLTITGVQVEDEAVYYCGSEDSTTDAVFGAGTTLTVLGQSSRSSAMTLDESGGGLQTPGGALSLVCKASGFTFSSYDMGWVRQAPGKGLEYVAGITNDGRYASYGSAVDGRATISRDNGQSTVRLQLNNLRAEDTGTYYCARDDGSGWTGNTIDTWGHGTEVIVSSTSGQAGQHHHHHHGAYPYDVPDYAS
B3: scFv136: additional scFv, SEQ ID NO: 153 and 160 (protein)
scFv: MKKTAIAIAVALAGFATVAQAALTQPSSVSANPGETVKITCSGGSYSYGWYQQKSPGSAPVTVIYSSDKRPSDIPSRFSGSKSGSTSTLTITGVQAEDEAVYYCGSRDSNYVGIFGAGTTLTVLGQSSRSSTVTLDESGGGLQTPGGALSLVCKASGFTFSSYEMQWVRQAPGKGLEFVAAISSDGSYTNYGAAVQGRATISRDNGQSTVRLQLSNLRAEDTATYYCARSPGGYTWWPGAAGGIDAWGHGTEVIVSSTSGQAGQHHHHHHGAYPYDVPDYAS

Key:
PTP1B-OX = molecular target: T1, PTP1B-OX; experiment: Inhibition of reactivation of reversibly oxidized PTP1B by reducing agent (RCML phosphatase assay); assay type: biochemical; settings: PTP1B oxidized with H2O2, buffer exchange, TCEP added; FIG. 2
Procedure: (§1) Applicant's hypothesis was that scFvs that are able to bind to and stabilize the oxidized conformation of PTP1B in solution would inhibit reactivation by reducing agent, but have no direct inhibitory effect on phosphatase activity in assays in vitro. Activity was measured using ^32P-labeled pTyr-Reduced Carboxamidomethylated and Maleylated Lysozyme as substrate. Applicant established conditions in which wild type PTP1B could be reversibly oxidized in vitro. PTP1B was inactivated following addition of H2O2. […] Applicant validated this approach further, by testing the effects of expressing one of the scFvs (scFv45) as a single chain antibody fragment “intrabody” to PTP1B, using 293T cells as the expression system. This intrabody was expressed transiently and then tested for effects on insulin signaling, focusing initially on the tyrosine phosphorylation status of the beta-subunit of the insulin receptor and insulin receptor substrate (IRS-1).
(§2) Reduced carboxamidomethylated and maleylated lysozyme (RCML) was labeled with ^32P using recombinant GST-FER kinase to stoichiometries up to 0.8 (mol ^32P incorporated/mol of protein). This ^32P-Labeled phospho-tyrosyl RCML was used as the substrate in the in-solution phosphatase assay for screening the conformation sensor scFvs. Recombinant PTP1B was reversibly oxidized and transiently inactivated with H2O2 (5× molar excess of the protein). […] Purified bacterially expressed scFvs (100× molar excess of PTP1B) were incubated with PTP after H2O2 treatment and its removal and the effect of individual scFv on stabilizing the reversibly oxidized conformation was assessed by the phosphatase assay under reducing condition.
In a different experiment, conditions were established in which wild type PTP1B could be reversibly oxidized in vitro. […] Addition of the reducing agent alone had no substantial effect on PTP1B activity (FIGS. 1 and 2, “PTP1B”).

endogenous PTP1B-OX = molecular target: T2, endogenous PTP1B-OX; experiment: Intrabody interaction in 293T cells treated with H2O2 (Ni-NTA pull down / anti-PTP1B immunoprecipitation); assay type: cell-based; settings: 1 mM H2O2 5 minutes
Procedure: (§3) One of the positive candidate scFvs (scFv45) was cloned in pcDNA3.2/V5-GW/D-TOPO expression vector and transiently expressed in mammalian cells as stable intracellular antibody (aka intrabody) (FIG. 10). To detect PTP1B-OX and scFv45 interaction in mammalian cells, scFv45 was overexpressed in 293T cells as described herein (See Example 4) and 48 hours post transfection the cells were serum-starved for 16 hours in growth medium (DMEM, low glucose) without serum (FBS), then incubated with 1 mM H2O2 (in growth medium without serum) for 5 minutes at 37° C. or treated with 20 mM NAC (in growth medium without serum) for 1 hour at 37° C. Cells treated with H2O2 were washed twice with cold (4° C.) PBS and lysed in lysis buffer (25 mM HEPES, pH 7.4, 150 mM NaCl, 0.25% Deoxychloate, 1% TritonX-100, 25 mM NaF, 10 mM MgCl2, 1 mM EDTA, 10% Glycerol, 0.5 mM PMSF, 10 mM Benzamidine, protease inhibitor cocktail). Cells treated with NAC were lysed with lysis buffer containing 2 mM TCEP to ensure a post-lysis reducing environment. Interaction between PTP1B and intrabody45 were tested by pulling down the protein complex from 1 mg of total cell lysate with Ni-NTA agarose or by immunoprecipitating PTP with anti-PTP1B (FG6). For the pull down experiment, Ni-NTA agarose beads were incubated with the lysates (both oxidized and reduced) at 4° C. Protein complex bound to the Ni-NTA agarose beads was pulled down and washed three times; first with lysis buffer containing 20 mM imidazole followed by two more washes with wash buffer (PBS, pH 7.4, 20 mM imidazole, 0.05% BSA, 0.05% Tween-20 and protease inhibitors). Applicant used 20 mM imidazole in the wash buffer to reduce the non-specific binding of proteins with the Ni-NTA agarose beads. The complex was eluted with wash buffer containing 500 mM imidazole with gentle shaking at 4° C. and the eluate was mixed with SDS sample buffer with DTT. For the immunoprecipitation experiments, 1 mg of total cell lystates (both oxidized and reduced) was incubated with anti-PTP1B antibody (FG6) at 4° C. The interacting protein complex was immunoprecipitated after incubating the lysate-antibody mixture with protein A/G Sepharose at 4° C. After immunoprecipitation, Sepharose beads were washed three times; first with lysis buffer followed by two more washes with wash buffer (PBS, pH 7.4, 0.05% BSA, 0.05% Tween-20 and protease inhibitors). The Sepharose beads were then heated at 90° C. in 2×SDS sample buffer with DTT. Proteins from the pulled down or immunoprecipitated complex were separated by SDS-PAGE. PTP was detected with anti-PTP1B antibody (FG6) and the intrabodies were detected with anti-HA (3F10)-HRP antibody [anti-HA (3F10)-HRP, Roche] by immunoblotting.
In the initial in vitro phosphatase screening assay using reversibly oxidized (with H2O2) recombinant PTP1B, Applicant found four different PTP1B-OX specific scFvs (scFv45, scFv57, scFv64 and scFv106) from the initial pool of 12 different scFvs. […] Applicant has also shown that scFv45, expressed as an intrabody in mammalian cells, can bind to endogenous PTP1B-OX but not endogenous PTP under reducing conditions. Further assessment was carried out to identify additional PTP1B-OX-specific intrabodies. Additional scFvs have been subcloned in pcDNA3.2/V5-GW/D-TOPO mammalian expression vector (FIG. 10) from their respective phagemid constructs. After transient overexpression of these scFvs as intrabodies in 293T cells, the interaction between endogenous PTP1B and these intrabodies in both H2O2-treated cells and cells was observed under reducing condition (treated with NAC and lysed with lysis buffer containing TCEP). […] All can be used in the methods and compositions described herein. Additional scFvs, such as some or all of the 137 selected individual scFvs from the library, can be similarly tested by in vitro screening and/or by binding assay in mammalian cells.

PTP1B (reduced, active) = molecular target: T3, PTP1B (reduced, active); experiment: Direct effect of scFvs/antibodies on PTP1B phosphatase activity (32P-pTyr-RCML substrate); assay type: biochemical; settings: 32P-labeled pTyr-RCML substrate, FIG. 1
Procedure: as §1, §2
In order to screen the isolated scFvs for those that inhibit reactivation of PTP1B-OX by reducing agent, but have no direct inhibitory effect on phosphatase activity in assays in vitro, the effect of six scFvs (scFv20, scFv34, scFv45, scFv57, scFv64 and scFv106) on PTP1B activity was determined. PTP1B activity was measured using 32P-labeled pTyr-Reduced Carboxamidomethylated and Maleylated Lysozyme as substrate (FIGS. 1 and 2). Addition of the reducing agent TCEP alone had no substantial effect in PTP1B activity was assessed.

[1] = molecular target: T4, endogenous PTP1B under reducing conditions; experiment: Intrabody interaction in 293T cells under reducing condition (NAC, TCEP) (Ni-NTA pull down / immunoprecipitation); assay type: cell-based; settings: 20 mM NAC, lysis buffer with 2 mM TCEP, FIGS. 11, 12
Procedure: as §3
In the initial in vitro phosphatase screening assay using reversibly oxidized (with H2O2) recombinant PTP1B, Applicant found four different PTP1B-OX specific scFvs (scFv45, scFv57, scFv64 and scFv106) from the initial pool of 12 different scFvs. […] Applicant has also shown that scFv45, expressed as an intrabody in mammalian cells, can bind to endogenous PTP1B-OX but not endogenous PTP under reducing conditions. Further assessment was carried out to identify additional PTP1B-OX-specific intrabodies. Additional scFvs have been subcloned in pcDNA3.2/V5-GW/D-TOPO mammalian expression vector (FIG. 10) from their respective phagemid constructs. […]

| Molecule | inhibition of reactivation of PTP1B-OX by reducing agent (restoration of PTP1B activity after reversible oxidation) (PTP1B-OX) | binding of intrabody to endogenous PTP1B-OX (endogenous PTP1B-OX; FIGS. 11, 12) | direct effect on PTP1B activity (PTP1B (reduced, active)) | binding of intrabody to endogenous PTP1B under reducing conditions [1] | binding of intrabody to endogenous PTP1B-OX (endogenous PTP1B-OX; FIGS. 11, 12, listed as scFv 136) |
| --- | --- | --- | --- | --- | --- |
| B1 | substantial inhibition of the restoration of PTP1B activity | bound weakly to PTP1B-OX | no direct inhibition of PTP activity | – | – |
| B2 | substantial inhibition of the restoration of PTP1B activity | bound to endogenous PTP1B-OX strongly; also recorded: co-pulldown of PTP1B-OX in the presence of H2O2 | no direct inhibition of PTP activity | not in the presence of NAC and TCEP | – |
| B3 | – | co-pulldown of PTP1B-OX in the presence of H2O2 | – | not in the presence of NAC and TCEP | bound weakly to PTP1B-OX |
